Data: PMC9900698, “Phosphorylation Regulation of a Histone-like HU Protein from Deinococcus radiodurans”

B1: Duplex DNA (36bp) (dsDNA)
DNA 1: GCAGAGTCAATTATGTCAATGACATAAAAGGCTCAG
DNA 2: CTGAGCCTTTTATGTCATTGACATAATTGACTCTGC
B2: Duplex DNA (24bp) (dsDNA)
DNA 1: TCAATTATGTCAATGACATAAAAG
DNA 2: CTTTTATGTCATTGACATAATTGA
B3: Duplex DNA (48bp) (dsDNA)
DNA 1: TAACAAGCAGAGTCAATTATGTCAATGACATAAAAGGCTCAGGCCTTC
DNA 2: GAAGGCCTGAGCCTTTTATGTCATTGACATAATTGACTCTGCTTGTTA

Target: T1, DrHU WT (Deinococcus radiodurans R1 (ATCC13939), UniProt Q9RZ89 1-122)
T1 sequence: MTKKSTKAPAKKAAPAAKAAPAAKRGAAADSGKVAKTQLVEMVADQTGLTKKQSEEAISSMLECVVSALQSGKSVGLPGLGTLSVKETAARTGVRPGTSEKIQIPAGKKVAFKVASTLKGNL
Test: EMSA; 10 mM Mg2+; EMSA: 50 mM NaCl, 20 mM Tris-HCl pH 8.0, 0.1 mg/ml BSA, 3 mM DTT, 0.1 mM EDTA, 10% glycerol, 10 mM MgCl2, 50 nM DNA, 0-3200 nM DrHU, room temperature 20 min; 22% native PAGE in 1x TB
Settings: protein: recombinant; tags: N-terminal His-MBP (pET28a-HMT), removed by TEV; chain copies: 2; label: 5'-FAM; blunt

Row | Binder | Kd [nM]
1 | B1 | 1350 ± 200
2 | B2 | 1480 ± 41.8
3 | B3 | 449 ± 29.6
